Holding throughout (test): cell-based or functional assay
Experiment [1] has as its target GLP-1 receptor.
Experiment [2] has as its target GLP-1 receptor. This is another data set of the same source.
For experiment [3], the target named is glucagon receptor.

Read-outs that look alike come from different tables or passages of the source. A value given as a limit tells only on which side of the number the result lay.

For the substance GLP-1 (peptide), the cAMP Induction, EC50 (luciferase reporter, HEK293) is 0.04 nM in experiment [1], 0.05 nM in experiment [2] and over 1000 nM in experiment [3].
